Legend:
Assay in all cases: holdup assay
Parameters in all cases: key: below the threshold = too weak to quantify, mostly under pKd 3.1 to 4
AHNAK1, Q09666 = molecular target: AHNAK1, Q09666
ARHGEF11, O15085 = molecular target: T1, ARHGEF11, O15085
T1 sequence (O15085 42-136, limits assumed, looked up): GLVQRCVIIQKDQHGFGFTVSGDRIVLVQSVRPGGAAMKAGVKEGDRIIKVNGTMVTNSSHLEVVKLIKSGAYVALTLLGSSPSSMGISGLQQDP

DFNB31_2, Q9P202 = molecular target: T2, DFNB31_2, Q9P202
T2 sequence (Q9P202 274-371, limits assumed, looked up): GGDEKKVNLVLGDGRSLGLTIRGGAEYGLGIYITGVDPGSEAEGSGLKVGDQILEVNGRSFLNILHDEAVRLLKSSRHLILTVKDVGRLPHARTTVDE

GRASP, Q7Z6J2 = molecular target: GRASP, Q7Z6J2
GRIP1_2, Q9Y3R0 = molecular target: T3, GRIP1_2, Q9Y3R0
T3 sequence (Q9Y3R0 145-248, limits assumed, looked up): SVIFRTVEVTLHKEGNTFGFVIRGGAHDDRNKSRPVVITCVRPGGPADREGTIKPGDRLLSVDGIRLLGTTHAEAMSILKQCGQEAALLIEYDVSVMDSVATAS

GRIP2_3, Q9C0E4 = molecular target: GRIP2_3, Q9C0E4
HTRA1, Q92743 = molecular target: HTRA1, Q92743
Inadl_10, Q8NI35 = molecular target: Inadl_10, Q8NI35
Inadl_3, Q8NI35 = molecular target: Inadl_3, Q8NI35
Inadl_4, Q8NI35 = molecular target: Inadl_4, Q8NI35
Inadl_5, Q8NI35 = molecular target: Inadl_5, Q8NI35
Inadl_8, Q8NI35 = molecular target: Inadl_8, Q8NI35
LAP2, Q96RT1 = molecular target: LAP2, Q96RT1
LIN7B, Q9HAP6 = molecular target: T4, LIN7B, Q9HAP6
T4 sequence (Q9HAP6 88-185, limits assumed, looked up): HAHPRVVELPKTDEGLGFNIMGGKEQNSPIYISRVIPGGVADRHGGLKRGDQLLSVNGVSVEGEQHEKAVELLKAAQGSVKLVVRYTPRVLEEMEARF

LNX2_3, Q8N448 = molecular target: T5, LNX2_3, Q8N448
T5 sequence (Q8N448 463-564, limits assumed, looked up): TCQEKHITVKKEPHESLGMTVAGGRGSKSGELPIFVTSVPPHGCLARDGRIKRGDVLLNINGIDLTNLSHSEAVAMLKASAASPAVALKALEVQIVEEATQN

MAGI3_2, Q5TCQ9 = molecular target: MAGI3_2, Q5TCQ9
PARD3_3, Q8TEW0 = molecular target: PARD3_3, Q8TEW0
PDZD2_2, O15018 = molecular target: T6, PDZD2_2, O15018
T6 sequence (O15018 329-429, limits assumed, looked up): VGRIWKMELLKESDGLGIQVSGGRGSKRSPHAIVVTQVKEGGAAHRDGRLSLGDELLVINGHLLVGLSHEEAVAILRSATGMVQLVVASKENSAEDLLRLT

PDZRN3_1, Q9UPQ7 = molecular target: T7, PDZRN3_1, Q9UPQ7
T7 sequence (Q9UPQ7 244-349, limits assumed, looked up): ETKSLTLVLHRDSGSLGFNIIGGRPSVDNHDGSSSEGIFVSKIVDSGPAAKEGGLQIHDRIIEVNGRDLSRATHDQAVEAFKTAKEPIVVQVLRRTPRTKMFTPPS

PICK1, Q9NRD5 = molecular target: PICK1, Q9NRD5
PTPN13_1, Q12923 = molecular target: T8, PTPN13_1, Q12923
T8 sequence (Q12923 1088-1188, limits assumed, looked up): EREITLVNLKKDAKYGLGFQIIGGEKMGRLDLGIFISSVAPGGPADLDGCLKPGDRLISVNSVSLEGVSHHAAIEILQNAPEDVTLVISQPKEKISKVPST

SCRIB_2, Q14160 = molecular target: SCRIB_2, Q14160
SHANK1, Q9Y566 = molecular target: T9, SHANK1, Q9Y566
T9 sequence (Q9Y566 658-767, limits assumed, looked up): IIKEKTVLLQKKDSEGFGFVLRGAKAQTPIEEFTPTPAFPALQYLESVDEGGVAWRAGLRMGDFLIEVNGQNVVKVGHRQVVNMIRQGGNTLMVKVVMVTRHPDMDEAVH

SNTB1, Q13884 = molecular target: T10, SNTB1, Q13884
T10 sequence (Q13884 107-205, limits assumed, looked up): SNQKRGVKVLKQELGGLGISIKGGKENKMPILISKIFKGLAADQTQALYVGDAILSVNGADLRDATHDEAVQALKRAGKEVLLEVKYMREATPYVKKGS

TJP2_1, Q9UDY2 = molecular target: TJP2_1, Q9UDY2
TX1BP3, O14907 = molecular target: T11, TX1BP3, O14907
T11 sequence (O14907 10-122, limits assumed, looked up): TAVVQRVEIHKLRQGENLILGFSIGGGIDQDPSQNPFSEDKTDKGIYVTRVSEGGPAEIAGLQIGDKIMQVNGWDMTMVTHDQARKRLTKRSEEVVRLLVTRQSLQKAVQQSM

[1] = plain residues with an end cap or a label only (N-terminal biotin on a linker: ado-ado)
[2] = plain residues with an end cap or a label only (N-terminal biotin on a linker: (peg)3)

AHNAK1, Q09666, sequence (Q09666 4-100): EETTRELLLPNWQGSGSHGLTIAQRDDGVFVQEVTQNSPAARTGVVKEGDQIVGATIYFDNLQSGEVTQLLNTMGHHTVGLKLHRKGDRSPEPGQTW
Inadl_8, Q8NI35, sequence (Q8NI35 1425-1530): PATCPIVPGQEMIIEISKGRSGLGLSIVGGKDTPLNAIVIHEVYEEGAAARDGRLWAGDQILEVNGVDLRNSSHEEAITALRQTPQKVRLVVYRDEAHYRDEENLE
HTRA1, Q92743, sequence (Q92743 360-477): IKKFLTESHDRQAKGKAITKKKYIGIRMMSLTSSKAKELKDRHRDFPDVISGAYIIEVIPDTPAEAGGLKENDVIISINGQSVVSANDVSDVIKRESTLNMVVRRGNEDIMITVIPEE
PICK1, Q9NRD5, sequence (Q9NRD5 17-115): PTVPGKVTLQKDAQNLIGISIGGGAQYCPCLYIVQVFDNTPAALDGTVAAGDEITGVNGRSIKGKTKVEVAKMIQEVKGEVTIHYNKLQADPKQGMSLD
Inadl_3, Q8NI35, sequence (Q8NI35 359-469): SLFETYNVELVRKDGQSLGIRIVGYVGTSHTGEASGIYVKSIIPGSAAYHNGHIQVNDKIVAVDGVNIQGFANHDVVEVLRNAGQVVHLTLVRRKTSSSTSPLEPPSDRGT
TJP2_1, Q9UDY2, sequence (Q9UDY2 24-128): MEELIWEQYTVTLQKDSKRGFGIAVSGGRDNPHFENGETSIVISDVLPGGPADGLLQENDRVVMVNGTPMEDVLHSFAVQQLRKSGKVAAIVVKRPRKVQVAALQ
LAP2, Q96RT1, sequence (Q96RT1 other isoform, or with tags, fused parts or gaps): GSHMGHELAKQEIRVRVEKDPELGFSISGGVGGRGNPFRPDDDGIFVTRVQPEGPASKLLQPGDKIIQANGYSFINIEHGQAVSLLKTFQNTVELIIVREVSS
GRASP, Q7Z6J2, sequence (Q7Z6J2 96-193): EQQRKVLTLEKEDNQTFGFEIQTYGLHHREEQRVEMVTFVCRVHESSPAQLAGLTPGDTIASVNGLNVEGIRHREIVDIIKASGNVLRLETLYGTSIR
Inadl_10, Q8NI35, sequence (Q8NI35 1673-1763): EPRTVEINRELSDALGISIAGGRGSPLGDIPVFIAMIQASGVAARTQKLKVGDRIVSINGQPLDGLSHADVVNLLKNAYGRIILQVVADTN
SCRIB_2, Q14160, sequence (Q14160 857-960): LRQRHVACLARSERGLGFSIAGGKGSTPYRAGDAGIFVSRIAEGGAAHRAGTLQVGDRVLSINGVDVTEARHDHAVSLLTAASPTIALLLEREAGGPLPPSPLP
MAGI3_2, Q5TCQ9, sequence (Q5TCQ9 398-503): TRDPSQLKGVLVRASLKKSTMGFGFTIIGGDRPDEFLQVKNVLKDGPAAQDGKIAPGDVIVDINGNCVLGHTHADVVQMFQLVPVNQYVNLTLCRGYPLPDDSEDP
Inadl_4, Q8NI35, sequence (Q8NI35 547-651): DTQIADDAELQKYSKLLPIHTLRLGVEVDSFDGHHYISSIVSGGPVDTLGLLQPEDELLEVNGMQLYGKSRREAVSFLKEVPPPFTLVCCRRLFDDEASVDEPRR
PARD3_3, Q8TEW0, sequence (Q8TEW0 582-685): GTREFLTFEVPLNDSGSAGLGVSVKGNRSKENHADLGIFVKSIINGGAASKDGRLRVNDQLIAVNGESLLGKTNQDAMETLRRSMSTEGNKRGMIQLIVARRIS
Inadl_5, Q8NI35, sequence (Q8NI35 673-780): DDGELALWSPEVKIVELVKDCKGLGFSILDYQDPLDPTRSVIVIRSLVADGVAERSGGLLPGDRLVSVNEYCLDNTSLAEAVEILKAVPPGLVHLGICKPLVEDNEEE
GRIP2_3, Q9C0E4, sequence (Q9C0E4 238-339): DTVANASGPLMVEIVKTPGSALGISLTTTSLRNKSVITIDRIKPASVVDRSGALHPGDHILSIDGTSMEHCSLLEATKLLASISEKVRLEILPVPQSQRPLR

ELSATVTTDC [TRIP6, Q15654]
pKd (AHNAK1, Q09666; [1]): below the threshold
pKd (ARHGEF11, O15085; [1]): 4.61
pKd (DFNB31_2, Q9P202; [1]): below the threshold
pKd (GRASP, Q7Z6J2; [1]): 3.54
pKd (GRIP1_2, Q9Y3R0; [1]): below the threshold
pKd (GRIP2_3, Q9C0E4; [1]): below the threshold
pKd (HTRA1, Q92743; [1]): 3.56
pKd (Inadl_10, Q8NI35; [1]): below the threshold
pKd (Inadl_3, Q8NI35; [1]): below the threshold
pKd (Inadl_4, Q8NI35; [1]): below the threshold
pKd (Inadl_5, Q8NI35; [1]): below the threshold
pKd (Inadl_8, Q8NI35; [1]): 3.55
pKd (LAP2, Q96RT1; [1]): below the threshold
pKd (LIN7B, Q9HAP6; [1]): below the threshold
pKd (LNX2_3, Q8N448; [1]): below the threshold
pKd (MAGI3_2, Q5TCQ9; [1]): below the threshold
pKd (PARD3_3, Q8TEW0; [1]): below the threshold
pKd (PDZD2_2, O15018; [1]): 4.2
pKd (PDZRN3_1, Q9UPQ7; [1]): below the threshold
pKd (PICK1, Q9NRD5; [1]): 3.8
pKd (PTPN13_1, Q12923; [1]): below the threshold
pKd (SCRIB_2, Q14160; [1]): below the threshold
pKd (SHANK1, Q9Y566; [1]): 3.63
pKd (SNTB1, Q13884; [1]): 4.34
pKd (TJP2_1, Q9UDY2; [1]): below the threshold
pKd (TX1BP3, O14907; [1]): 3.48

DDASLPVSDV [PLEKHA1, Q9HB21]
pKd (AHNAK1, Q09666; [1]): below the threshold
pKd (ARHGEF11, O15085; [1]): 4.22
pKd (DFNB31_2, Q9P202; [1]): below the threshold
pKd (GRASP, Q7Z6J2; [1]): 3.65
pKd (GRIP1_2, Q9Y3R0; [1]): below the threshold
pKd (GRIP2_3, Q9C0E4; [1]): below the threshold
pKd (HTRA1, Q92743; [1]): below the threshold
pKd (Inadl_10, Q8NI35; [1]): below the threshold
pKd (Inadl_3, Q8NI35; [1]): below the threshold
pKd (Inadl_4, Q8NI35; [1]): below the threshold
pKd (Inadl_5, Q8NI35; [1]): below the threshold
pKd (Inadl_8, Q8NI35; [1]): 4.94
pKd (LAP2, Q96RT1; [1]): 3.73
pKd (LIN7B, Q9HAP6; [1]): below the threshold
pKd (LNX2_3, Q8N448; [1]): below the threshold
pKd (MAGI3_2, Q5TCQ9; [1]): below the threshold
pKd (PARD3_3, Q8TEW0; [1]): below the threshold
pKd (PDZD2_2, O15018; [1]): 5.49
pKd (PDZRN3_1, Q9UPQ7; [1]): below the threshold
pKd (PICK1, Q9NRD5; [1]): below the threshold
pKd (PTPN13_1, Q12923; [1]): below the threshold
pKd (SCRIB_2, Q14160; [1]): below the threshold
pKd (SHANK1, Q9Y566; [1]): below the threshold
pKd (SNTB1, Q13884; [1]): 4.59
pKd (TJP2_1, Q9UDY2; [1]): below the threshold
pKd (TX1BP3, O14907; [1]): 3.84

LAHVKHKEQI [AQP3, Q92482]
pKd (AHNAK1, Q09666; [1]): below the threshold
pKd (ARHGEF11, O15085; [1]): below the threshold
pKd (DFNB31_2, Q9P202; [1]): below the threshold
pKd (GRASP, Q7Z6J2; [1]): below the threshold
pKd (GRIP1_2, Q9Y3R0; [1]): below the threshold
pKd (GRIP2_3, Q9C0E4; [1]): below the threshold
pKd (HTRA1, Q92743; [1]): below the threshold
pKd (Inadl_10, Q8NI35; [1]): below the threshold
pKd (Inadl_3, Q8NI35; [1]): below the threshold
pKd (Inadl_4, Q8NI35; [1]): below the threshold
pKd (Inadl_5, Q8NI35; [1]): below the threshold
pKd (Inadl_8, Q8NI35; [1]): below the threshold
pKd (LAP2, Q96RT1; [1]): below the threshold
pKd (LIN7B, Q9HAP6; [1]): below the threshold
pKd (LNX2_3, Q8N448; [1]): below the threshold
pKd (MAGI3_2, Q5TCQ9; [1]): below the threshold
pKd (PARD3_3, Q8TEW0; [1]): below the threshold
pKd (PDZD2_2, O15018; [1]): below the threshold
pKd (PDZRN3_1, Q9UPQ7; [1]): below the threshold
pKd (PICK1, Q9NRD5; [1]): 3.98
pKd (PTPN13_1, Q12923; [1]): below the threshold
pKd (SCRIB_2, Q14160; [1]): below the threshold
pKd (SHANK1, Q9Y566; [1]): below the threshold
pKd (SNTB1, Q13884; [1]): below the threshold
pKd (TJP2_1, Q9UDY2; [1]): below the threshold
pKd (TX1BP3, O14907; [1]): below the threshold

EDPRVEVTQF [SLC22A9, Q8IVM8]
pKd (AHNAK1, Q09666; [1]): below the threshold
pKd (ARHGEF11, O15085; [1]): below the threshold
pKd (DFNB31_2, Q9P202; [1]): below the threshold
pKd (GRASP, Q7Z6J2; [1]): 5.02
pKd (GRIP1_2, Q9Y3R0; [1]): below the threshold
pKd (GRIP2_3, Q9C0E4; [1]): below the threshold
pKd (HTRA1, Q92743; [1]): 3.49
pKd (Inadl_10, Q8NI35; [1]): below the threshold
pKd (Inadl_3, Q8NI35; [1]): below the threshold
pKd (Inadl_4, Q8NI35; [1]): below the threshold
pKd (Inadl_5, Q8NI35; [1]): below the threshold
pKd (Inadl_8, Q8NI35; [1]): below the threshold
pKd (LAP2, Q96RT1; [1]): below the threshold
pKd (LIN7B, Q9HAP6; [1]): 3.83
pKd (LNX2_3, Q8N448; [1]): below the threshold
pKd (MAGI3_2, Q5TCQ9; [1]): below the threshold
pKd (PARD3_3, Q8TEW0; [1]): below the threshold
pKd (PDZD2_2, O15018; [1]): below the threshold
pKd (PDZRN3_1, Q9UPQ7; [1]): below the threshold
pKd (PICK1, Q9NRD5; [1]): below the threshold
pKd (PTPN13_1, Q12923; [1]): below the threshold
pKd (SCRIB_2, Q14160; [1]): below the threshold
pKd (SHANK1, Q9Y566; [1]): 5.36
pKd (SNTB1, Q13884; [1]): below the threshold
pKd (TJP2_1, Q9UDY2; [1]): below the threshold
pKd (TX1BP3, O14907; [1]): below the threshold

QQSMSSADSTQA [SARS-Cov2-N, P0DTC9]
pKd (AHNAK1, Q09666; [2]): below the threshold
pKd (ARHGEF11, O15085; [2]): below the threshold
pKd (DFNB31_2, Q9P202; [2]): below the threshold
pKd (GRASP, Q7Z6J2; [2]): below the threshold
pKd (GRIP1_2, Q9Y3R0; [2]): below the threshold
pKd (GRIP2_3, Q9C0E4; [2]): below the threshold
pKd (HTRA1, Q92743; [2]): below the threshold
pKd (Inadl_10, Q8NI35; [2]): below the threshold
pKd (Inadl_3, Q8NI35; [2]): below the threshold
pKd (Inadl_4, Q8NI35; [2]): below the threshold
pKd (Inadl_5, Q8NI35; [2]): below the threshold
pKd (Inadl_8, Q8NI35; [2]): below the threshold
pKd (LAP2, Q96RT1; [2]): below the threshold
pKd (LIN7B, Q9HAP6; [2]): below the threshold
pKd (LNX2_3, Q8N448; [2]): 3.88
pKd (MAGI3_2, Q5TCQ9; [2]): below the threshold
pKd (PARD3_3, Q8TEW0; [2]): below the threshold
pKd (PDZD2_2, O15018; [2]): below the threshold
pKd (PDZRN3_1, Q9UPQ7; [2]): below the threshold
pKd (PICK1, Q9NRD5; [2]): below the threshold
pKd (PTPN13_1, Q12923; [2]): below the threshold
pKd (SCRIB_2, Q14160; [2]): below the threshold
pKd (SHANK1, Q9Y566; [2]): below the threshold
pKd (SNTB1, Q13884; [2]): below the threshold
pKd (TJP2_1, Q9UDY2; [2]): below the threshold
pKd (TX1BP3, O14907; [2]): below the threshold
